Source: patent publication US20180273587A1 (AILERON THERAPEUTICS, published 2018)
Starred links: 1 amine or outer side, 2 acyl side, 3 side chain; linkers in the order of their positions; H or OH if unused. Positions of bridges follow the written chain, without caps; N, C: chain ends. Non-standard residues stand in square brackets, D forms with d. hhL = hhLeu, CC(C)CCC[C@H](N[*:1])C(=O)[*:2]; Phe(4-F) = N[C@@H](Cc1ccc(F)cc1)C(=O)O; tBuAla = CC(C)(C)C[C@H](N)C(=O)O; R8 = C=CCCCCCC[C@@](C)(N)C(=O)O; αMeL = CC(C)C[C@](C)(N)C(=O)O; Chg = N[C@H](C(=O)O)C1CCCCC1; hLeu = CC(C)CC[C@H](N)C(=O)O; S5 = C=CCCC[C@](C)(N)C(=O)O

B1: SEQ ID NO: 1701 (peptide)
peptide: Ac-IWIAQALR[R8][tBuAla]GDAFN[S5]YYA-NH2
modifications: staple 9-16
SMILES: CC[C@H](C)[C@H](NC(C)=O)C(=O)N[C@@H](Cc1c[nH]c2ccccc12)C(=O)N[C@H](C(=O)N[C@@H](C)C(=O)N[C@@H](CCC(N)=O)C(=O)N[C@@H](C)C(=O)N[C@@H](CC(C)C)C(=O)N[C@@H](CCCNC(=N)N)C(=O)N[C@]1(C)CCCCCCC=CCCC[C@@](C)(C(=O)N[C@@H](Cc2ccc(O)cc2)C(=O)N[C@@H](Cc2ccc(O)cc2)C(=O)N[C@@H](C)C(N)=O)NC(=O)[C@H](CC(N)=O)NC(=O)[C@H](Cc2ccccc2)NC(=O)[C@H](C)NC(=O)[C@H](CC(=O)O)NC(=O)CNC(=O)[C@H](CC(C)(C)C)NC1=O)[C@@H](C)CC
B2: SEQ ID NO: 1713 (peptide)
peptide: Ac-IW[Chg]AQALR[R8]IGDAFN[S5]YYA-NH2
modifications: staple 9-16
SMILES: CC[C@H](C)[C@H](NC(C)=O)C(=O)N[C@@H](Cc1c[nH]c2ccccc12)C(=O)N[C@H](C(=O)N[C@@H](C)C(=O)N[C@@H](CCC(N)=O)C(=O)N[C@@H](C)C(=O)N[C@@H](CC(C)C)C(=O)N[C@@H](CCCNC(=N)N)C(=O)N[C@]1(C)CCCCCCC=CCCC[C@@](C)(C(=O)N[C@@H](Cc2ccc(O)cc2)C(=O)N[C@@H](Cc2ccc(O)cc2)C(=O)N[C@@H](C)C(N)=O)NC(=O)[C@H](CC(N)=O)NC(=O)[C@H](Cc2ccccc2)NC(=O)[C@H](C)NC(=O)[C@H](CC(=O)O)NC(=O)CNC(=O)[C@H]([C@@H](C)CC)NC1=O)C1CCCCC1
notes: also called Ac-IWChgAQALR$r8IGDAFN$YYA-NH2
B3: SEQ ID NO: 1717 (peptide)
peptide: Ac-RWIAAALR[R8]IGDAFN[S5]YYA-NH2
modifications: staple 9-16
SMILES: CC[C@H](C)[C@H](NC(=O)[C@H](Cc1c[nH]c2ccccc12)NC(=O)[C@H](CCCNC(=N)N)NC(C)=O)C(=O)N[C@@H](C)C(=O)N[C@@H](C)C(=O)N[C@@H](C)C(=O)N[C@@H](CC(C)C)C(=O)N[C@@H](CCCNC(=N)N)C(=O)N[C@]1(C)CCCCCCC=CCCC[C@@](C)(C(=O)N[C@@H](Cc2ccc(O)cc2)C(=O)N[C@@H](Cc2ccc(O)cc2)C(=O)N[C@@H](C)C(N)=O)NC(=O)[C@H](CC(N)=O)NC(=O)[C@H](Cc2ccccc2)NC(=O)[C@H](C)NC(=O)[C@H](CC(=O)O)NC(=O)CNC(=O)[C@H]([C@@H](C)CC)NC1=O
B4: SEQ ID NO: 1711 (peptide)
peptide: Ac-IW[tBuAla]AQALR[R8]IGDAFN[S5]YYA-NH2
modifications: staple 9-16
SMILES: CC[C@H](C)[C@H](NC(C)=O)C(=O)N[C@@H](Cc1c[nH]c2ccccc12)C(=O)N[C@@H](CC(C)(C)C)C(=O)N[C@@H](C)C(=O)N[C@@H](CCC(N)=O)C(=O)N[C@@H](C)C(=O)N[C@@H](CC(C)C)C(=O)N[C@@H](CCCNC(=N)N)C(=O)N[C@]1(C)CCCCCCC=CCCC[C@@](C)(C(=O)N[C@@H](Cc2ccc(O)cc2)C(=O)N[C@@H](Cc2ccc(O)cc2)C(=O)N[C@@H](C)C(N)=O)NC(=O)[C@H](CC(N)=O)NC(=O)[C@H](Cc2ccccc2)NC(=O)[C@H](C)NC(=O)[C@H](CC(=O)O)NC(=O)CNC(=O)[C@H]([C@@H](C)CC)NC1=O
notes: also called Ac-IWTbaAQALR$r8IGDAFN$YYA-NH2
B5: SEQ ID NO: 1716 (peptide)
peptide: Ac-EWIAAALR[R8]IGDAFN[S5]YYA-NH2
modifications: staple 9-16
SMILES: CC[C@H](C)[C@H](NC(=O)[C@H](Cc1c[nH]c2ccccc12)NC(=O)[C@H](CCC(=O)O)NC(C)=O)C(=O)N[C@@H](C)C(=O)N[C@@H](C)C(=O)N[C@@H](C)C(=O)N[C@@H](CC(C)C)C(=O)N[C@@H](CCCNC(=N)N)C(=O)N[C@]1(C)CCCCCCC=CCCC[C@@](C)(C(=O)N[C@@H](Cc2ccc(O)cc2)C(=O)N[C@@H](Cc2ccc(O)cc2)C(=O)N[C@@H](C)C(N)=O)NC(=O)[C@H](CC(N)=O)NC(=O)[C@H](Cc2ccccc2)NC(=O)[C@H](C)NC(=O)[C@H](CC(=O)O)NC(=O)CNC(=O)[C@H]([C@@H](C)CC)NC1=O
B6: SEQ ID NO: 1710 (peptide)
peptide: Ac-IWIAQALR[R8]IGDAFN[S5]Y[Phe(4-F)]A-NH2
modifications: staple 9-16
SMILES: CC[C@H](C)[C@H](NC(C)=O)C(=O)N[C@@H](Cc1c[nH]c2ccccc12)C(=O)N[C@H](C(=O)N[C@@H](C)C(=O)N[C@@H](CCC(N)=O)C(=O)N[C@@H](C)C(=O)N[C@@H](CC(C)C)C(=O)N[C@@H](CCCNC(=N)N)C(=O)N[C@]1(C)CCCCCCC=CCCC[C@@](C)(C(=O)N[C@@H](Cc2ccc(O)cc2)C(=O)N[C@@H](Cc2ccc(F)cc2)C(=O)N[C@@H](C)C(N)=O)NC(=O)[C@H](CC(N)=O)NC(=O)[C@H](Cc2ccccc2)NC(=O)[C@H](C)NC(=O)[C@H](CC(=O)O)NC(=O)CNC(=O)[C@H]([C@@H](C)CC)NC1=O)[C@@H](C)CC
B7: SEQ ID NO: 1705 (peptide)
peptide: Ac-[αMeL]WIAQALR[R8]IGDAFN[S5]YYA-NH2
modifications: staple 9-16
SMILES: CC[C@H](C)[C@H](NC(=O)[C@H](Cc1c[nH]c2ccccc12)NC(=O)[C@](C)(CC(C)C)NC(C)=O)C(=O)N[C@@H](C)C(=O)N[C@@H](CCC(N)=O)C(=O)N[C@@H](C)C(=O)N[C@@H](CC(C)C)C(=O)N[C@@H](CCCNC(=N)N)C(=O)N[C@]1(C)CCCCCCC=CCCC[C@@](C)(C(=O)N[C@@H](Cc2ccc(O)cc2)C(=O)N[C@@H](Cc2ccc(O)cc2)C(=O)N[C@@H](C)C(N)=O)NC(=O)[C@H](CC(N)=O)NC(=O)[C@H](Cc2ccccc2)NC(=O)[C@H](C)NC(=O)[C@H](CC(=O)O)NC(=O)CNC(=O)[C@H]([C@@H](C)CC)NC1=O
B8: SEQ ID NO: 1718 (peptide)
peptide: Ac-KWIAAALR[R8]IGDAFN[S5]YYA-NH2
modifications: staple 9-16
SMILES: CC[C@H](C)[C@H](NC(=O)[C@H](Cc1c[nH]c2ccccc12)NC(=O)[C@H](CCCCN)NC(C)=O)C(=O)N[C@@H](C)C(=O)N[C@@H](C)C(=O)N[C@@H](C)C(=O)N[C@@H](CC(C)C)C(=O)N[C@@H](CCCNC(=N)N)C(=O)N[C@]1(C)CCCCCCC=CCCC[C@@](C)(C(=O)N[C@@H](Cc2ccc(O)cc2)C(=O)N[C@@H](Cc2ccc(O)cc2)C(=O)N[C@@H](C)C(N)=O)NC(=O)[C@H](CC(N)=O)NC(=O)[C@H](Cc2ccccc2)NC(=O)[C@H](C)NC(=O)[C@H](CC(=O)O)NC(=O)CNC(=O)[C@H]([C@@H](C)CC)NC1=O
B9: SEQ ID NO: 1702 (peptide)
peptide: Ac-IWIAQALR[R8][hhL]GDAFN[S5]YYA-NH2
modifications: staple 9-16
SMILES: CC[C@H](C)[C@H](NC(C)=O)C(=O)N[C@@H](Cc1c[nH]c2ccccc12)C(=O)N[C@H](C(=O)N[C@@H](C)C(=O)N[C@@H](CCC(N)=O)C(=O)N[C@@H](C)C(=O)N[C@@H](CC(C)C)C(=O)N[C@@H](CCCNC(=N)N)C(=O)N[C@]1(C)CCCCCCC=CCCC[C@@](C)(C(=O)N[C@@H](Cc2ccc(O)cc2)C(=O)N[C@@H](Cc2ccc(O)cc2)C(=O)N[C@@H](C)C(N)=O)NC(=O)[C@H](CC(N)=O)NC(=O)[C@H](Cc2ccccc2)NC(=O)[C@H](C)NC(=O)[C@H](CC(=O)O)NC(=O)CNC(=O)[C@H](CCCC(C)C)NC1=O)[C@@H](C)CC
B10: SEQ ID NO: 1719 (peptide)
peptide: Ac-HWIAAALR[R8]IGDAFN[S5]YYA-NH2
modifications: staple 9-16
SMILES: CC[C@H](C)[C@H](NC(=O)[C@H](Cc1c[nH]c2ccccc12)NC(=O)[C@H](Cc1c[nH]cn1)NC(C)=O)C(=O)N[C@@H](C)C(=O)N[C@@H](C)C(=O)N[C@@H](C)C(=O)N[C@@H](CC(C)C)C(=O)N[C@@H](CCCNC(=N)N)C(=O)N[C@]1(C)CCCCCCC=CCCC[C@@](C)(C(=O)N[C@@H](Cc2ccc(O)cc2)C(=O)N[C@@H](Cc2ccc(O)cc2)C(=O)N[C@@H](C)C(N)=O)NC(=O)[C@H](CC(N)=O)NC(=O)[C@H](Cc2ccccc2)NC(=O)[C@H](C)NC(=O)[C@H](CC(=O)O)NC(=O)CNC(=O)[C@H]([C@@H](C)CC)NC1=O
B11: SEQ ID NO: 1706 (peptide)
peptide: Ac-IW[αMeL]AQALR[R8]IGDAFN[S5]YYA-NH2
modifications: staple 9-16
SMILES: CC[C@H](C)[C@H](NC(C)=O)C(=O)N[C@@H](Cc1c[nH]c2ccccc12)C(=O)N[C@@](C)(CC(C)C)C(=O)N[C@@H](C)C(=O)N[C@@H](CCC(N)=O)C(=O)N[C@@H](C)C(=O)N[C@@H](CC(C)C)C(=O)N[C@@H](CCCNC(=N)N)C(=O)N[C@]1(C)CCCCCCC=CCCC[C@@](C)(C(=O)N[C@@H](Cc2ccc(O)cc2)C(=O)N[C@@H](Cc2ccc(O)cc2)C(=O)N[C@@H](C)C(N)=O)NC(=O)[C@H](CC(N)=O)NC(=O)[C@H](Cc2ccccc2)NC(=O)[C@H](C)NC(=O)[C@H](CC(=O)O)NC(=O)CNC(=O)[C@H]([C@@H](C)CC)NC1=O
notes: also called Ac-IWAmLAQALR$r8IGDAFN$YYA-NH2
B12: SEQ ID NO: 1712 (peptide)
peptide: Ac-IW[hLeu]AQALR[R8]IGDAFN[S5]YYA-NH2
modifications: staple 9-16
SMILES: CC[C@H](C)[C@H](NC(C)=O)C(=O)N[C@@H](Cc1c[nH]c2ccccc12)C(=O)N[C@@H](CCC(C)C)C(=O)N[C@@H](C)C(=O)N[C@@H](CCC(N)=O)C(=O)N[C@@H](C)C(=O)N[C@@H](CC(C)C)C(=O)N[C@@H](CCCNC(=N)N)C(=O)N[C@]1(C)CCCCCCC=CCCC[C@@](C)(C(=O)N[C@@H](Cc2ccc(O)cc2)C(=O)N[C@@H](Cc2ccc(O)cc2)C(=O)N[C@@H](C)C(N)=O)NC(=O)[C@H](CC(N)=O)NC(=O)[C@H](Cc2ccccc2)NC(=O)[C@H](C)NC(=O)[C@H](CC(=O)O)NC(=O)CNC(=O)[C@H]([C@@H](C)CC)NC1=O
notes: also called Ac-IWhLAQALR$r8IGDAFN$YYA-NH2

Columns and labels:
Test in all cases: Ki table, method not stated
BCL-XL = BCL-XL (UniProt Q07817 1-209)
BCL-2 = BCL-2 (UniProt P10415 1-217, limits assumed)
MCL-1 = target: T1, MCL-1 (UniProt Q07820 172-327, limits assumed)
T1 construct: also called Myeloid cell leukemia 1
T1 sequence (Q07820 172-327 limits assumed): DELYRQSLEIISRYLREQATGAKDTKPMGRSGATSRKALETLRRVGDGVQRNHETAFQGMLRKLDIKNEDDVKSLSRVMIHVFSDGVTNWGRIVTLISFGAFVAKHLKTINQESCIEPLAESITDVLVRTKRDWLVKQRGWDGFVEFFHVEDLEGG

BCL-2, sequence (P10415 1-217 limits assumed): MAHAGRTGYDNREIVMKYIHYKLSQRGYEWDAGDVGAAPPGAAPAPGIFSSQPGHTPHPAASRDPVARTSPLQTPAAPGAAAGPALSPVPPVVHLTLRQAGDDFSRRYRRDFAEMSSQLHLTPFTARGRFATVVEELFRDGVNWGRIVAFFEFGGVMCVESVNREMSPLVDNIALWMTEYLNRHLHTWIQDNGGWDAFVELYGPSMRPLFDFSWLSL
BCL-XL, sequence (Q07817 1-209): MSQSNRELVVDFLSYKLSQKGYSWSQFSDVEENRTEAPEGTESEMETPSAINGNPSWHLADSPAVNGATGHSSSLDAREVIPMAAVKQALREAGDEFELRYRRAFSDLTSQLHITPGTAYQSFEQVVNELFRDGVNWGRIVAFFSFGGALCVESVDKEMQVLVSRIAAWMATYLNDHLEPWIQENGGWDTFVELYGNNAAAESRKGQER

| Binder | Ki (BCL-XL) | Ki (BCL-2) | Ki (MCL-1) |
| --- | --- | --- | --- |
| B1 | 35.4 nM | 227 nM | 13.7 nM |
| B2 | 20.9 nM | 38.9 nM | 4.6 nM |
| B3 | 32.8 nM | 47.8 nM | 4.5 nM |
| B4 | 17.2 nM | 36.6 nM | 10.9 nM |
| B5 | 72 nM | 118 nM | 2.2 nM |
| B6 | 9.5 nM | 91.8 nM | 4.8 nM |
| B7 | 8.4 nM | 48.3 nM | 5.2 nM |
| B8 | 27.2 nM | 49.7 nM | 3.9 nM |
| B9 | 4 nM | 23.1 nM | 34.6 nM |
| B10 | 25.2 nM | 52 nM | 3.6 nM |
| B11 | 7.2 nM | 24.8 nM | 19.8 nM |
| B12 | 17 nM | 36.5 nM | 3.7 nM |
